The results in this text go back to the domain aggregation screens of Martell et al. (2025).
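Also: 20 min heating vs room temperature control held 20 min.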

The nature of this series: soluble fraction after stress (log2 fold change); higher = more stays soluble; pooled small domains, quantitative proteomics. The settings on record: stress: 75 degC.
Consider “HMNQKTQMTKQILAESLKKLMLHHSFEKITIKDITDAAGFIRPTFYNHFKDKYDLVEWIFTEEI”, for which the “soluble fraction (log2)” value was -0.287.
For the sequence “HMNQKVRQLLSQAQAEMERKNYKQAIKLLDQALAIEPHSGELHFMKGYAWMSMGEFEKALESLYEARNYA”, the “soluble fraction (log2)” value is -1.4.
In the case of “HMNQPRQRKVIFELIDERNALERVLMHFAHLEKQVEKIDERKYQVTLYYDKEDETEILIRVLSFG” it was -2.01.
With “HMNQTEKSKITHNELLKAAHSLFIEQGFNHTTITDIVTRAGYSTGIFYKHYKTKTDILVELWTNYIE”, the “soluble fraction (log2)” value is -2.27.
As for “HMNQWQLLSEDGAILGTRVLYHPHETEQPFTRSLSGVKIPAHVQSVTIRAGDLVHGFGGREIQMQLPPIV”, the “soluble fraction (log2)” value is -0.0313.
Regarding “HMNREENIQIGRDLLERELRKQGMDLQENLRQEVLLDGAKKLGFNNTDDLLAAIGDLKVTPAMFIGKIA”, the “soluble fraction (log2)” value was found to be 0.0484.
In the case of “HMNREMLVHAIGQLKEKYASALELKYWHGFTEREIAAFLNISEKAANSRLVRGRVMLRKLLE” it was 0.0264; in that of “HMNREYELTAEESGQRLDKYLAGEMTDLSRSRIKELVQAGEILVNGKKSKVSYKVQKDDLIQVIVLPLE”, -0.402; in that of “HMNRITEFVVPEGTKKIRADKLLAESFPDHSRSDFHRAFDASLVRLEGQPISKNRKISQGDVLVFEMPEI”, 0.505.
The same measure for “HMNRPQDLGEPYDGQFREHPEAWAFYAAQSPSYRRSASWWVLGAKQEVTRQRRLAALIDASAQGTRIPALT”: -1.8; for “HMNRREFQFSEGSSNKFWSIELRDQSFIVHYGKIGTNGQAQEKTFATADAAKKEHDKLIAEKTKKGYVEVQ”: -0.34; for “HMNRTKYYDFEGHPAKVVRLTLPVYLNKIGDEVVVYDSQKFAREASPISESQYNRMVAEIFQP”: -0.233.
The same measure for “HMNSEAVQNVIDKISALPDDITAKAKSQIEEARAAYEALSDSEKARVTNYSTLVAAEKKLASVVKD”: 0.558; for “HMNSEERVLDTASKWLVKLDEGLDESEAQVLKVWLATPLHRDTFLEMVALWDKMSVLNELADIV”: -1.65.
As for “HMNSISDSELKALIKNNYLKFLKRIASDEEIEYHFNQIKNKTILLDELDSIFQNSQEYKDLVEHNNKIQN”, the “soluble fraction (log2)” value is -0.268.
In the case of “HMNSKQELAYQTIRARIVDGSYGPGYRIVIDEVARELGVSPIPVREAVRRLEAEGLITYTRHAGARVVA” it was -0.219; in that of “HMNSLQLGSRGPTVSALQAKLNTMLVPSPRLVADGSFGPKTAQAVKAFQQMKRLVADGVVGPKTAAALGLS”, -0.156.
The same measure for “HMNSLQNNLKQARTRVGLTQGVLASQAGISRQAYSTLESGSANPSTEVALRLAQALQERVELLFYLPER”: -0.948; for “HMNSNKFANAAAVAVAEKPADSYNPLFIYGPSGVGKTHLLYAIANEIHKHHPDYNIVYIKGDQFTNELIN”: 0.088; for “HMNSNLSLTSYEEKIFFLLEKEKNLDELILESSFKAGEILSILMDLEIKHAIVSIPGGKYRRK”: -3.85.
In the case of “HMNSNQESFENWLSANSWYNKDRAMRVFADSLGQELRNSGVSFEKALTQISAEVRKEFSHKFQ” it was -0.491; in that of “HMNSNSLSFSKFMQEVEAGRVIEVQIKGNDIQGELSDGSKFKTYSPNYPNLVDKLSENKVSIVATPL”, -0.0878.
Regarding “HMNSNTIIFSQFLSEVDNGRVTQVQIQGNNIKGTLSNGKDFITYAPNDPNLIEKLTSKGVSISASPID”, the “soluble fraction (log2)” value came to 0.0526.
The same measure for “HMNSNTIIINDIMTKIGKEVKNFTEIYSIILKALAEHGEEYVRTNTEYALKNFTGNFDIFLEQLLLK”: -0.207; for “HMNSRAERKEAAKEAIRNLLREGMTFEELTGPWLEKRFAEEPFNRGARSWQMLISEIKEEPEFQHL”: -0.014.
“HMNSRQPEEEALFELLAKNPYSDEQLEEIRIAIGSGISYKDVLVIADIKNTAKQMKKLRLKFTKDTG”: the “soluble fraction (log2)” value is -0.561.
With “HMNSTEQQTERFLATLTSLGGNAGNQRLQEALGWQGSTYQRIKQHLLDEGRIRTGRGRGGSVALSEATAT”, the “soluble fraction (log2)” value came to 0.0863.
The same measure for “HMNSTGVYQRPDGFWEYRFTLSINGKKLPRRKSTDLMGNKLKTKREAIKAREEAIIALRTEKTI”: -1.42; for “HMNSTVKVPNVVGMSVPQAKALLEQNHLLVQGIREVSTDKAPAGIVINQLPYSDAEVKEERHIYLTVSKGK”: 0.968; for “HMNSVKSPMPGTILGLKVSVGDTVKVGDELLVLESMKMENMINSPIDGTVSKILISEGDSVQHGQELII”: 0.238.
With “HMNSVSARRSAAITAISTGRIHSQEDLVQALKKAGYPVTQATASRDIEEIGAVRIRNQKGEMVYAIS”, the “soluble fraction (log2)” value amounted to 0.208.
In the case of “HMNTEEITYSRFQQMLEAGEISQVSIESNRILILPSEETGIEKVLYTGIINDPGLVERLNSAGVEFRAPIE” it was -0.31; in that of “HMNTEFDVPDVVGKTLDEAEFVLKGSNLKRGLIMPVDDPSKAPGTIVRQNPEAGAGNKIRVGDVVDLWVVG”, 0.271; in that of “HMNTELSPKVWDVVQEFILYRKEIKAPMTEHAVKLLIGQLQKLSSDPDEQIEILRQSIVNGWKGIFSLK”, -1.2.
The same measure for “HMNTGTTISYSDFRDRVASGTVKEVQISDDRITGVLKNDETFNTVPVGNDSGLTKLLDDNGVTYSGTP”: 0.299; for “HMNTIFSVNGPVVKVKDTKDFSMMEMVYVGEKKLIGEVIGITESFTTIQVYEVTTGLKVGEPVYTTGAPM”: -0.361; for “HMNTIIHPIRLAYVDSGSIKSMAEQAEIDVKILTSEANSQIFWAIGDEKQIDRLYNLISQVDIIQNK”: -1.86.
Consider “HMNTKHVFIIEQDDEKKRLDIFLVEKLQDSRSFLKKGIVEGWVKVNESVVKPNYKLKQKDQITVIIPP”, for which the “soluble fraction (log2)” value was -1.47.
The same measure for “HMNTNDFTIGTRVRTTKKGNGSSDGTSNTARSGIEGTITRIIPEAKYPYLVSTTVPMGWYKKDALEK”: 0.00349.
For “HMNTPLYLKIREQIFDALRSGRWAANDPLPSETKLASEFEVSQGTIRKAIDDLVAQNILYRHQGRGTFIRR”, the “soluble fraction (log2)” value was -1.21.
In the case of “HMNTSSVTVHYQDEAGKSLADTVTLTGKVGETYSSEQKKITGYNFKEVRGNPKGQFTTEAQTVTYVYTQAA” it was 0.211; in that of “HMNTWVEIFRAEDQGQIRDASLVLLAVKVAHRVDMNSSSAPWSLMVPAQDQQRAHHELTTYWQENAH”, -2.03; in that of “HMNVAELIEGHEAEIAEVLKEFSLLYLMRLADELGEMTKSSSGNGPFQVLKGLVYEEIARRG”, -1.65.
Regarding “HMNVAVPTPADKRKVRVMKADINAKLRVNDANGAYAVYEELKEWVTLKGFTEWNDDLSKLSETMGSMKRKV”, the “soluble fraction (log2)” value was -0.601.
In the case of “HMNVDALVGQRGRVTQTFDPGLRLGRVAVGGDDWRAETTTDQPLREGDLVEVVSVESNTLIVRPIA” it was 0.0567; in that of “HMNVDSLIGQTARVIVDINNNDSIGYALVGGQEWTARAENDNDIIPKDTLVEIVGVSGVKLIVRRKE”, 0.0563; in that of “HMNVDSLVGSEARVTAEIDNRKETGTAMVNGQEWTARAESDEEIYPVGTIVEIRKIQGVKLIVSTH”, -0.394.
For the sequence “HMNVEATAETLLALLKKNGGSLPFGDKSDPEAIQSQLKMSKKTFKKAAGTLFKKKLVRIEDHGIFL”, the “soluble fraction (log2)” value was -2.02.
The same measure for “HMNVEGEVVVPNVIGRTMKDVAVILSDLGLRMEAEGTGVAKSSQPQHGTSVKRGTVVQVRFEPLSVN”: 0.648; for “HMNVEKLREMYPEGTKIILQEMQGESRMAKGLKGTVTHVDDAGQIHMKWENGSSLVLNVEVDTFKKIE”: 0.0771; for “HMNVEVDSIGDDDFLVKVSAGTSTEHRVTLTDAYWEQIWSSSLPKKEIISLSFAFLLEREPNSSIMRT”: 0.161.
The same measure for “HMNVNALIGQEGIVIKEINSGSNKIGQVKISGDTWSAVTTNDFTNAIPVGSNVKILKIDGVNLIVEPVY”: -0.255; for “HMNVNVSFTQLRHKAEHAIQAKNWSEARNLLTLATLMRPTHRNVARRLKAVEQRNRLFRRLLLILTHRKV”: -0.429.
Regarding “HMNVPFGFDEVNGKLVKNEEEQAIISEIKSLKNKGLSLRKIAEALNGRGIATKNGKAWTAVQIQRIA”, the “soluble fraction (log2)” value is -0.318.
As to “HMNVPLYIMIESAVEQRLLDGTYQVGKMIPTEFELMDEFSVSRETVRKAINLLVQRGKLEKKRGIGTFVAS”, the “soluble fraction (log2)” value is -3.28.
The same measure for “HMNVSDIENKLNEMLSPLEKKVMVLYLEGKSYVEIGELLGRHTKSVDNALQRVKRKLEIYLKNRK”: -2.62; for “HMNVTIGESIKNVINHYGTPIYSYNPNNQEKYYEFHTNKGVLVVTAIGKKNTGYVTRVSMTY”: -1.04.
Consider “HMNVVDTGTDANYRVKISAVNLNMRLGPSTSYKSKGYITPGNYTIIKTSGDWGKVKETGYWVALKYTSKIN”, for which the “soluble fraction (log2)” value is -3.16.
Regarding “HMNVVINNELVSLMVEAMKDGVSSKSIQEEFEGYKISGKTITKKVLTAHVNKALEVFADMQE”, the “soluble fraction (log2)” value is -0.582.
The same measure for “HMNYDPEEKITQIRTMLEIHSRIEFNEIITPATRRGEIIIIFLALLHMIKRGYIVVRQHRLFGDITIFARD”: 0.0974.
In the case of “HMNYKDQISRYFQQAFHIYPKYQTMKNEEGNFTSKIFKDDKMIIEGVGKSKKKAEQDVSRKALIHFNVL”, the “soluble fraction (log2)” value is -0.376.
The same measure for “HMNYKNAIGQVGSVYVPIPPNREGLGQIEVKVQSRVSTVRAVSDHSERLENRVAVRVIELVDDRTLLVEKL”: -1.15; for “HMNYTSEDIKLASELFFHLLNNRILPANDVLASQYYDNNEIREILENMAEEGGLRIFGTRENLHLVSNGE”: 0.00512.
As to “HMNYYDLLGIPKSATKQQIRKAYRTKAKEFHPDVNGPFNSHMHFLLLKQAYETLMDANMRHVYDMALIS”, the “soluble fraction (log2)” value was -2.4.
As for “HMPADHYEVLGIARDADAAEVKRAYRRLARESHPDANHGDSGAEVRFKAVSAAYEVLSDPERRARYDRFGH”, the “soluble fraction (log2)” value turned out to be 0.0495.
“HMPANVELLRTFTNKTGTKIKARIVAVSDNKVKLIRDDSKKFIVPIDSLSEEDQKYLKDWIANEVGEQ”: the “soluble fraction (log2)” value is -0.16.
The same measure for “HMPARTANEEAIRKYLLNHDSITRKETQALLKTGQSAAGRILKEMVENGWLARIGNGRSTGYELR”: -0.222; for “HMPATIEGIRLYLSSGLIKGVGEEMASRIVKAFGTDTIRVLDEEPERLLKVRGVGKKSLDRIRTSWAEH”: -0.366.
In the case of “HMPATPDATVQAVQQRLNELGYDVGSADGLMGRGTRSAIIAFQQDRGLAATGVADQALLLQLQP” it was 0.105.
